Experimental data: the Human Domainome abundance scans (Beltran et al. 2025)
± gives the uncertainty stated by the source.

B1: Ankyrin-2, residues 3571 to 3650; numbered along this chain, Q01484 (parent)
chain: ERLAYIADHLGFSWTELARELDFTEEQIHQIRIENPNSLQDQSHALLKYWLERDGKHATDTNLVECLTKINRMDIVHLME

Variants of: B1
Test: abundance fitness (aPCA) (normalised: wild type 0, dead -1); higher = more abundant; growth selection in yeast, the domain comes from the species named
Settings: Homo sapiens

In order of falling abundance fitness:
1. ERFAYIADHLGFSWTELARELDFTEEQIHQIRIENPNSLQDQSHALLKYWLERDGKHATDTNLVECLTKINRMDIVHLME [L3F]  0.143 ± 0.075
2. ERLFYIADHLGFSWTELARELDFTEEQIHQIRIENPNSLQDQSHALLKYWLERDGKHATDTNLVECLTKINRMDIVHLME [A4F]  0.129 ± 0.068
3. EDLAYIADHLGFSWTELARELDFTEEQIHQIRIENPNSLQDQSHALLKYWLERDGKHATDTNLVECLTKINRMDIVHLME [R2D]  0.107 ± 0.35
4. EWLAYIADHLGFSWTELARELDFTEEQIHQIRIENPNSLQDQSHALLKYWLERDGKHATDTNLVECLTKINRMDIVHLME [R2W]  0.056 ± 0.24
5. ERLGYIADHLGFSWTELARELDFTEEQIHQIRIENPNSLQDQSHALLKYWLERDGKHATDTNLVECLTKINRMDIVHLME [A4G]  0.052 ± 0.035
6. ERIAYIADHLGFSWTELARELDFTEEQIHQIRIENPNSLQDQSHALLKYWLERDGKHATDTNLVECLTKINRMDIVHLME [L3I]  0.05 ± 0.24
7. ERSAYIADHLGFSWTELARELDFTEEQIHQIRIENPNSLQDQSHALLKYWLERDGKHATDTNLVECLTKINRMDIVHLME [L3S]  0.043 ± 0.069
8. ERLDYIADHLGFSWTELARELDFTEEQIHQIRIENPNSLQDQSHALLKYWLERDGKHATDTNLVECLTKINRMDIVHLME [A4D]  0.039 ± 0.084
9. ERMAYIADHLGFSWTELARELDFTEEQIHQIRIENPNSLQDQSHALLKYWLERDGKHATDTNLVECLTKINRMDIVHLME [L3M]  0.028 ± 0.095
10. ESLAYIADHLGFSWTELARELDFTEEQIHQIRIENPNSLQDQSHALLKYWLERDGKHATDTNLVECLTKINRMDIVHLME [R2S]  0.026 ± 0.17
11. EVLAYIADHLGFSWTELARELDFTEEQIHQIRIENPNSLQDQSHALLKYWLERDGKHATDTNLVECLTKINRMDIVHLME [R2V]  0.024 ± 0.23
12. ERLHYIADHLGFSWTELARELDFTEEQIHQIRIENPNSLQDQSHALLKYWLERDGKHATDTNLVECLTKINRMDIVHLME [A4H]  0.016 ± 0.067
13. ERVAYIADHLGFSWTELARELDFTEEQIHQIRIENPNSLQDQSHALLKYWLERDGKHATDTNLVECLTKINRMDIVHLME [L3V]  0.005 ± 0.089
14. ERLMYIADHLGFSWTELARELDFTEEQIHQIRIENPNSLQDQSHALLKYWLERDGKHATDTNLVECLTKINRMDIVHLME [A4M]  0.004 ± 0.078
15. ERLRYIADHLGFSWTELARELDFTEEQIHQIRIENPNSLQDQSHALLKYWLERDGKHATDTNLVECLTKINRMDIVHLME [A4R]  -0.007 ± 0.043
16. ERLEYIADHLGFSWTELARELDFTEEQIHQIRIENPNSLQDQSHALLKYWLERDGKHATDTNLVECLTKINRMDIVHLME [A4E]  -0.017 ± 0.054
17. ERTAYIADHLGFSWTELARELDFTEEQIHQIRIENPNSLQDQSHALLKYWLERDGKHATDTNLVECLTKINRMDIVHLME [L3T]  -0.019 ± 0.075
18. ERLNYIADHLGFSWTELARELDFTEEQIHQIRIENPNSLQDQSHALLKYWLERDGKHATDTNLVECLTKINRMDIVHLME [A4N]  -0.024 ± 0.11
19. ERLKYIADHLGFSWTELARELDFTEEQIHQIRIENPNSLQDQSHALLKYWLERDGKHATDTNLVECLTKINRMDIVHLME [A4K]  -0.029 ± 0.08
20. ERQAYIADHLGFSWTELARELDFTEEQIHQIRIENPNSLQDQSHALLKYWLERDGKHATDTNLVECLTKINRMDIVHLME [L3Q]  -0.031 ± 0.076
21. ERHAYIADHLGFSWTELARELDFTEEQIHQIRIENPNSLQDQSHALLKYWLERDGKHATDTNLVECLTKINRMDIVHLME [L3H]  -0.038 ± 0.13
22. ERLLYIADHLGFSWTELARELDFTEEQIHQIRIENPNSLQDQSHALLKYWLERDGKHATDTNLVECLTKINRMDIVHLME [A4L]  -0.058 ± 0.04
23. ERLPYIADHLGFSWTELARELDFTEEQIHQIRIENPNSLQDQSHALLKYWLERDGKHATDTNLVECLTKINRMDIVHLME [A4P]  -0.071 ± 0.029
24. ERNAYIADHLGFSWTELARELDFTEEQIHQIRIENPNSLQDQSHALLKYWLERDGKHATDTNLVECLTKINRMDIVHLME [L3N]  -0.074 ± 0.26
25. ERRAYIADHLGFSWTELARELDFTEEQIHQIRIENPNSLQDQSHALLKYWLERDGKHATDTNLVECLTKINRMDIVHLME [L3R]  -0.077 ± 0.051
26. ERCAYIADHLGFSWTELARELDFTEEQIHQIRIENPNSLQDQSHALLKYWLERDGKHATDTNLVECLTKINRMDIVHLME [L3C]  -0.086 ± 0.22
27. ERWAYIADHLGFSWTELARELDFTEEQIHQIRIENPNSLQDQSHALLKYWLERDGKHATDTNLVECLTKINRMDIVHLME [L3W]  -0.117 ± 0.05
28. ERYAYIADHLGFSWTELARELDFTEEQIHQIRIENPNSLQDQSHALLKYWLERDGKHATDTNLVECLTKINRMDIVHLME [L3Y]  -0.155 ± 0.2
29. ERAAYIADHLGFSWTELARELDFTEEQIHQIRIENPNSLQDQSHALLKYWLERDGKHATDTNLVECLTKINRMDIVHLME [L3A]  -0.164 ± 0.065
30. ERKAYIADHLGFSWTELARELDFTEEQIHQIRIENPNSLQDQSHALLKYWLERDGKHATDTNLVECLTKINRMDIVHLME [L3K]  -0.179 ± 0.11
31. ERGAYIADHLGFSWTELARELDFTEEQIHQIRIENPNSLQDQSHALLKYWLERDGKHATDTNLVECLTKINRMDIVHLME [L3G]  -0.181 ± 0.11
32. EGLAYIADHLGFSWTELARELDFTEEQIHQIRIENPNSLQDQSHALLKYWLERDGKHATDTNLVECLTKINRMDIVHLME [R2G]  -0.208 ± 0.34
33. ERPAYIADHLGFSWTELARELDFTEEQIHQIRIENPNSLQDQSHALLKYWLERDGKHATDTNLVECLTKINRMDIVHLME [L3P]  -0.215 ± 0.064
34. EREAYIADHLGFSWTELARELDFTEEQIHQIRIENPNSLQDQSHALLKYWLERDGKHATDTNLVECLTKINRMDIVHLME [L3E]  -0.289 ± 0.23
35. EPLAYIADHLGFSWTELARELDFTEEQIHQIRIENPNSLQDQSHALLKYWLERDGKHATDTNLVECLTKINRMDIVHLME [R2P]  -0.454 ± 0.39
